Laboratory results as given in patent publication US12636342B2, “TARS derived from Akkermansia muciniphila or fragment thereof, and use thereof” (KOREA RESEARCH INSTITUTE OF BIOSCIENCE AND BIOTECHNOLOGY, priority 2020, dated 2026).
“Also recorded” adds a separate entry of the source.

Assays:
[1] = system: mouse bone marrow-derived macrophages (BMDMs); experiment: ELISA of immune cytokine secretion in LPS-treated BMDMs (inflammatory environment); format: cell-based; conditions: LPS-induced inflammatory environment, 24 h
Procedure: (§1) To determine whether AmTARS affects immune cytokine secretion when cellular inflammation was induced, mouse bone marrow-derived macrophages BMDMs as mouse-derived immune cells and human macrophages THP1 as human-derived immune cells were cultured by way of the same method as in Example 2.
(§2) Specifically, the cultured BMDMs and THP1 were treated with lipopolysaccharide (LPS) to induce an inflammatory response and were simultaneously treated with AmTARS at 0.1 μM, 0.2 μM, and 0.5 μM for 24 h to obtain cell cultures. The obtained cell cultures were analyzed for immune cytokine secretion by way of the same method as in Example 2.
Next, BMDMs were treated with LPS to create an inflammatory environment by way of the same method as in Example 3, and then treated with each TARS (AmTARS, BfTARS, eTARS, and hTARS) to investigate the secretion of IL-10.
An inflammatory environment was created through LPS in BMDMs by way of the same method as in Example 3, and then the cells were treated with the four types of fragments, and the immune cytokine secretion was determined by ELISA.

[2] = system: human macrophages (THP1); experiment: ELISA of immune cytokine secretion in LPS-treated THP1 (inflammatory environment); format: cell-based; conditions: THP1, LPS-induced inflammation, 0.1, 0.2, 0.5 μM, 24 h
Procedure: as §1, §2

[3] = system: mouse model of dextran sulfate sodium (DSS)-induced colitis; experiment: DSS-induced colitis (inflammatory bowel disease) mouse model, intraperitoneal administration; format: in vivo; conditions: for distribution of B cells in the colon: normal mice
Procedure: We evaluated the anti-inflammatory function of AmTARS in a mouse model of dextran sulfate sodium (DSS)-induced colitis. First, we assessed dose-dependent responses (i.e., changes in body weight and colon length) to intraperitoneal (i.p.) administration of AmTARS (0.05-0.4 mg/kg) once every other day for 10 days (FIG. 10A).
The disease activity score was calculated by adding up scores ranging from 0 to 4 points for each item of bloody stool, diarrhea, and weight loss, and the epithelial damage score was calculated by assigning 0 to 4 points according to the degree of colon tissue damage.
Next, to measure IgA, mouse feces were collected and diluted in PBS containing a protein inhibitor, and then a supernatant with impurities removed was obtained, and 100 μL was placed in each well of a 96-well plate to perform protein coating at 4° C. for 2 h. The plate was washed three times with a washing solution (50 mM Tris, 0.2% in PBS) and then incubated with 100 μL of blocking solution at room temperature for 1-2 h, followed by washing. HRP conjugated IgA antibody (1:30000) was added and then incubated at room temperature for 1 h, followed by washing. Thereafter, 100 μL of a substrate solution was added, followed by incubation for 30 min, and then 50 μL of a stop solution was added, followed by measurement at 405-450 nm by an ELISA reader. […]

[4] = system: B cell-deficient μMut mice; experiment: DSS-induced inflammatory bowel disease in B cell-deficient μMut mice; format: in vivo, mouse
Procedure: To determine whether the inflammatory bowel disease alleviation effect induced through the secretion of IL-10 cytokine by AmTARS corresponded to a B cell-mediated effect, DSS was administered to B cell-deficient μMut mice (μ heavy chain mutation mice, B cell depletion mice) by way of the same method as in Example 5 to induce inflammatory bowel disease, and AmTARS was administered.

[5] = system: Tg (NFκB:EGFP) zebrafish transgenic line; experiment: NF-κB activity in DSS-treated Tg (NFκB:EGFP) zebrafish larvae; format: in vivo; conditions: yolk injection at 3 dpf, 0.5% DSS, analysis at 6 dpf
Procedure: (A-E) Global gene expression analysis. Total mRNA from BMDMs treated with either AmTARS (0.5 μM) or Pam3 (10 ng ml-1) for 1 or 3 h was isolated and analyzed by RNA sequencing (A). Principle components analysis (PCA) of the gene expression profiles for each sample (B). Hierarchical clustering of gene expression profiles from each sample identified cluster 3 and 4 (C). Gene set enrichment analysis (GSEA) of clusters 3 and 4 with respect to terms related to inflammation (D). […] (F) Overview of the experimental procedures for zebrafish. The yolk of Tg (NFκB:EGFP) transgenic zebrafish larvae (3 dpf) was injected with PBS or AmTARS. Injected larvae were treated at 3 and 5 dpf with 0.5% DSS for 24 h, with a washing period with fresh water for 24 h in between. Sample collection and analysis of Tg (NFκB:EGFP)-based EGFP intensity were conducted at 6 dpf. (G) Representative confocal images showing NF-κB signaling in the mid-distal intestines of PBS- or AmTARS-injected larvae with or without DSS treatment. White dashed lines denote the boundaries of the intestines (based on merged DIC bright field images). (H) Bar graph comparing the fluorescence intensity of the mid-distal intestines of PBS- or AmTARS-injected larvae treated (or not) with DSS (n=32 per PBS group and n=35 per DSS group). […] P-values were calculated by unpaired and two-tailed Student's t-test. […]

[6] = DSS-induced colitis mice, i.p., AmTARS 0.2 mg/kg
[7] = DSS-induced colitis mice, particularly proximal colon, versus control mice
[8] = i.p. 0.05-0.4 mg/kg once every other day for 10 days
[9] = inflammatory bowel disease mouse model
[10] = normal mice (control of B cell-deficient experiment)

B1: Akkermansia muciniphila-derived threonyl-tRNA synthetase (TARS) (protein)
chain: MSEHKERKTLEERQQMSDLERLRHSCAHVLATAICRLWPDAQLAGGPAVDNGFYYDVELDHRISTEDFERIEEEMKKVVKENQVFQKEVISRADAMKMAESGELGALGPRSEPSRFKIDLLNDIPEDEEISLYRNGDFTDLCAGPHVGRTGNCKAFKIMSVASAFYKGDKNRPMLQRIYGTCFPNRTQLDEHLERLEEARRRDHRKLGRELGLFCIDESVGQGLILWKPKGALIRRSLQDFITEELDKLGYSQVYTPNIGKLDLYRTSGHFPYYQESQYAPIPERDAMEKLSQEGASCAELFNGLATGTIEGYMLKPMNCPHHIKIYANDAHSYRDLPVRLAEFGTVYRWEQSGELGGMTRVRGFTQDDAHIFCTPDQLAGEIRQCLGIVKTIFGTLGMTDYRVRLSMRDPESDKYVGSPENWDKAEQALREAAEWLGADYSEEAGEAAFYGPKIDFIVRDAIGREWQLGTVQVDYNLPERFDLHYTGADNKPHRPVMVHRAPFGSMERFTGLLIEHFEGKFPTWLSPEQVRVLPISDKVTDVAAAHRTALAARGVRVTVDETPDKIGAKIRNARLDRVPYMLVLGQREAEDGTVSVRHRDKGDLGAMPFEQFADLVAREIAERHISPVI
modifications: Akkermansia muciniphila TARS
secretion of IL-6 [1]: suppressed; also recorded: reduced in a dose-dependent manner
secretion of IL-10 [1]: increased IL-10 levels; also recorded: increased in a dose-dependent manner; also recorded: increased in a protein concentration-dependent manner
secretion of TNF-α [1]: suppressed; also recorded: reduced in a dose-dependent manner
secretion of IL-6 [2]: reduced in a dose-dependent manner
secretion of IL-10 [2]: increased in a dose-dependent manner
secretion of TNF-α [2]: reduced in a dose-dependent manner
therapeutic effects on colitis pathology ([3]; AmTARS 0.2 mg kg-1 versus mIL-10 0.02 mg kg-1): comparable with those of IL-10
IL-10-positive macrophage (CD11b+F4/80+IL-10+) numbers within colonic cells ([3]; DSS-induced colitis mice): restored
IL-10 levels in serum ([3]; DSS-induced colitis mice): increased
body weight loss [3, 6]: ameliorated
colon shortening / shortening of the intestine [3, 6]: ameliorated
disease activity scores [3, 6]: ameliorated
disruption of the epithelial lining [3, 7]: significantly lower
epithelial damage score [3, 7]: significantly lower
colitis-induced infiltration of inflammatory monocytes (CD11b+F4/80−) ([3]; colon cells, DSS-induced colitis mice): significantly suppressed
body weight loss ([3]; i.p. 0.4 mg/kg, up to 7 days): significantly attenuated
body weight loss, dose response [3, 8]: attenuated body weight loss and colon shortening in a dose-dependent manner
colon shortening, dose response [3, 8]: attenuated body weight loss and colon shortening in a dose-dependent manner
secretion of the cytokine IL-10 in the mouse plasma [3, 9]: increased the secretion
distribution of B cells in the colon [3, 9]: increase in B cells
distribution of B cells in the colon ([3]; inflammatory bowel disease mouse model, listed as TARS): significantly increased
amount of IgA increased due to an inflammatory response ([3]; mouse feces, ELISA): reduced the amount of IgA
colon tissue damage due to inflammatory bowel disease [3, 10]: alleviated
intestine length reduction due to inflammatory bowel disease [3, 10]: alleviated
increase in B cells [4]: could not be shown
NF-κB activity in the distal intestine induced by repeated DSS treatment [5]: significantly dampened
